Data as given in publication PMC6920325.

Target: LDL-R (human, UniProt P01130 22-788)
Assay: ELONA

Chain of LDL-R (P01130 22-788): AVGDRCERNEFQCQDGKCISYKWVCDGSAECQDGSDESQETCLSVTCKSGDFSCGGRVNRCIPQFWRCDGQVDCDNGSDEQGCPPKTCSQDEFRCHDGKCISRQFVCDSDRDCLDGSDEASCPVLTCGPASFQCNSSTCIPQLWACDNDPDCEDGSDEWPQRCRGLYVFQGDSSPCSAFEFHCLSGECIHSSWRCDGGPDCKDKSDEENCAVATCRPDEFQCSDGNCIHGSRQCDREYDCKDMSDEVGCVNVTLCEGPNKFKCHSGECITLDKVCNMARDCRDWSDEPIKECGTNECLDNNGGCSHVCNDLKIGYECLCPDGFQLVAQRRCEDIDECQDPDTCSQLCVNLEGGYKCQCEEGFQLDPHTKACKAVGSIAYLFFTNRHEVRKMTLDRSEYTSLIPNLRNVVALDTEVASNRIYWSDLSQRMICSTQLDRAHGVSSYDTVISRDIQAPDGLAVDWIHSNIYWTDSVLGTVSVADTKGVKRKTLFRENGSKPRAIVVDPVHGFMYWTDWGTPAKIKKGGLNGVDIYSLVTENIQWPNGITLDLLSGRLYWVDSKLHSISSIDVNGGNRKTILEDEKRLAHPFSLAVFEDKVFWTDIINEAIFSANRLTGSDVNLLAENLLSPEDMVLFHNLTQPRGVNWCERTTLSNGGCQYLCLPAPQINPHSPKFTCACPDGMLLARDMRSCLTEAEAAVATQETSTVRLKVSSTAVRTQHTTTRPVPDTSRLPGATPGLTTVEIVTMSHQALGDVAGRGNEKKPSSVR

Binder: CGGTCGGCGGGTGGGCGGGGGGAGAACGAGGTAGGGGTCA (ssDNA) [RNV-L7 truncated]
- binding result: no binding

B1: RNV-L7 (ssDNA)
DNA: GGACAGGACCACACCCAGCGCGGTCGGCGGGTGGGCGGGGGGAGAACGAGGTAGGGGTCAGGCTCCTGTGTGTCGCTTTGT
- Kd: 19.6 nM
